{
  "source": "the DeepSol protein solubility set",
  "data": [
    {"assay": "soluble on expression in E. coli; label from the status in PepcDB or PDB records", "values": [
      {"sequence": "MGHHHHHHSHEELGLKVGLEIHRQLDTKKLFSPVPTKFSDEVDFTFQRRLRPTMSELGEVDPAALEEFKKGRVFIYEGNYQLTDLVYMDEEPPRGPDKEALEVALQIAYLLNAKPVDEVYYMRKIVIDGSNVSGFQRTAIIATDGKVETPWGTVGIPTICLEEDAARIIERKEKEVIYRLDRLGVPLVEISTTPDIHHPEQAKVVAKFIGDALRATRKVKRGLGTIRQDLNVSIKGGARIEIKGVQELDMIPLIIEREVERQLNLLKIR", "soluble on expression in E. coli": "not soluble"},
      {"sequence": "MGHHHHHHSHEVFKNAQPPIRDATDLRENMQNAVVSFKELCGLSSVANLMQCMLAVSPRFLGPDNTPLVVLNLSEQYPTMELQGIVPEVLKKIVTTYDMMIQSLKALIENADAVYEKIVHCQKAAMEFHEHLHSIGTKEGLKERKLQKAVESFTWNITILKGQADLLKYAKNETLENLKQIHFAAVSCGLNKPGTENADVQKPRRSLEVIPEKANDETGE", "soluble on expression in E. coli": "not soluble"},
      {"sequence": "MGHHHHHHSHGATLIRDRLKTEPFEENSFLEQFMIEKLPEACSIGDGKPFVMNLQDLYMAVTTQEVQVGQKHQGAGDPHTSNSASLQGIDSQCVNQPEQLVSSAPTLSAPEKESTALCRDLSCQRSRGRSQGVSSVNLLWPQLLRMDLENSFQASP", "soluble on expression in E. coli": "not soluble"},
      {"sequence": "MGHHHHHHSHGGSRTGPVSLQGDPKQAPWSSSQSNSSRKTLFLSLCPPFPTQPQIHLHFTEHRASSHQGGPFKLQICLSSLYSNLLLHCHYREVHHMSGHRTESAGGHLFLPQDLRWKSPGLGVFAVQSVYELARRHNVSPFYSGPP", "soluble on expression in E. coli": "not soluble"},
      {"sequence": "MGHHHHHHSHGGVGKKEQLSVKKLRVVLFALCCNTEQAAEHFRNPQRRIRRWLRRFQASQGENLEGKYLSFEAEEKLAEWVLTQREQQLPVNEETLFQKATKIGRSLEGGFKISYEWAVRFMLRH", "soluble on expression in E. coli": "not soluble"},
      {"sequence": "MGHHHHHHSHGTRVTLRFQMKMFESADSTATRSGQDLWAEICSCLPNPEQEDGANNAFSDSFVDSCPEGEGQREVADFAVQPAVKPWAPLQDSEVYLASLEKKLRRIKGLNQEVTSKDMLRTLAQAKKECWDRFLQEKLASEFFVDGLDSDESTLEHFKRWLQPDKVAVSTEEVQYLIPPESQVEKPVAEDEPAAGDKPAAAEQ", "soluble on expression in E. coli": "soluble"},
      {"sequence": "MGHHHHHHSHIKPGEEVFTSYIDLLYPTEDRNDRLRDSYFFTCECQECTTKDKDKAKVEIRKLSDPPKAEAIRDMVRYARNVIEEFRRAKHYKSPSELLEICELSQEKMSSVFEDSNVYMLHMMYQAMGVCLYMQDWEGALQYGQKIIKPYSKHYPLYSLNVASMWLKLGRLYMGLEHKAAGEKALKKAIAIMEVAHGKDHPYISEIKQEIESH", "soluble on expression in E. coli": "not soluble"},
      {"sequence": "MGHHHHHHSHLGHSTMYMWAMGDREVFIELAEALTGARLTHSYPIPGGARRDIPADFPDMARRAVRYMRKRLDEYAKIFLNNPVIRSRLEGVGVIPKKAAAEMGIVGPNARGSGIDYDVRLVHPYDAYPEIDFEVPVFEEGDALARTYVRVEEIKQSLRIIEQAVEWLEKHPREPIVDKYLYGKYPPLHKKVLEAEGRAKLLPTVAAMKVPPGRAIGRAETGRGETVYYVESDGGVNPYRVRIVTASARNVIAFKYVLPGHRVMDIPAIYGSLDYFPPEADR", "soluble on expression in E. coli": "not soluble"},
      {"sequence": "MGHHHHHHSHLKHKMMNYMKDFRMIEDSENPEIVISVGGDGTLLQAFHQYSHMLSKVAFVGVHTGHLGFYADWLPHEVEKLIIEINNSEFQVIEYPLLEIIMRYNDNGYETRYLALNEATMKTENGSTLVVDVNLRGKHFERFRGDGLCVSTPSGSTAYNKALGGALIHPSLEAMQITEIASINNRVFRTVGSPLVLPKHHTCLISPVNHDTIRMTIDHVSIKHKNVNSIQYRVANEKVRFARFRPFPFWKR", "soluble on expression in E. coli": "not soluble"},
      {"sequence": "MGHHHHHHSHMAASTASQRPLKGILKDNTSTTSSMVASAEHPRGSVHEQLSKKSQKWDEMNILATYRPADKDYGLMKIDEPSTPYHSTMGDDEDACSDTETTEAMATDSLAKNLAAAEGLEPKYQVQEQESSGEEDSDLSPEEREKKRQFEMRRTLHYNEGLNIKLARQLISKDLHDDDKVEEMLETAHGESMNTEESNQGSTASDQQQNKSRSS", "soluble on expression in E. coli": "not soluble"},
      {"sequence": "MGHHHHHHSHMAKLLSDLSVDSARCKPGNNLTKSLLNIHDKQLQHDPAPAHTSIMSYLNKLETNYSFTHSEPLSTIKNEETIEPDKTYENVLSSRGPQNSNTRGMEEASAPGIISALSKQDSDEGSETMALIEDEHNLDNTIYIPFARSTPEKKSPLSKRLSPQPQIRAATTQLVSNSGLAVSGEENKLCTPVICSSSTKEAEDAPEKLSRASDMKDTQLLKKIKEAIGKIPAATKEPEEQTACHGPSGCLSNSLQVKGNTVCDGSVFTSDLMSDWSISSFSTFTSRDEQDFRNGLAALDANIARLQKSLRTGLLEK", "soluble on expression in E. coli": "not soluble"},
      {"sequence": "MGHHHHHHSHMALLVRVLRNQTSISQWVPVCSRLIPVSPTQGQGDRALSRTSQWPQMSQSQACGGSEQIPGIDIQLNRKYHTTRKLSTTKDSPQPVEEKVGAFTKIIEAMGFTGPLKYSKWKIKIAALRMYTSCVEKTDFEEFLLRCQMPDTFNSWFLITLLHVWMCLVRMKQEGRSGKYMCRIIVHFMWEDVQQRGRVMGVNPYILKKNMILMTNHFYAAILGYDEGILSDDHGLAAALWRTFFNRKCEDPRHLELLVEYVRKQIQYLDSMNGEDLLLTGEVSWRPLVEKNPQSILKPHSPTYNDEGL", "soluble on expression in E. coli": "not soluble"},
      {"sequence": "MGHHHHHHSHMARKLKGKIGSKGLKGALLRHKAKVKLVRNIESKQKHELRKKNSSANNKTVKRNQEFQKLNQGKVMPFEKDETLMLCGEGDFSFARSIVEQNYIESDNLIITSYDNSVNELKLKYPHTFEENYQYLKDLNIPIFFQIDVTKLVKSFKISKNNTWFKIINRLSDHRWGNKPLQNIVFNFPHNGKGIKDQERNIREHQDLIFNFFQNSLQLFNLINTKIQNDTLRYTQGYDLNEDTPQAKKLTAEGYGNIILSLFDGEPYDSWQIKLLAKKNGLTLSRSSKFQWENFP", "soluble on expression in E. coli": "soluble"},
      {"sequence": "MGHHHHHHSHMASKKPDKTYEEMVKEVERLKLENKTLKQKVKSSGAVSSDDSILTAAKRESIIVSSSRALGAVAMRKIEAKVRSRAAKAVTEQELTSLLQSLTLRVDVSMEETTVGASGGIGPSSQTETKKRRPRSKSRHRHDHE", "soluble on expression in E. coli": "not soluble"},
      {"sequence": "MGHHHHHHSHMEAEESEKAATEQEPLEGTEQTLDAEEEQEESEEAACGSKKRVVPGIVYLGHIPPRFRPLHVRNLLSAYGEVGRVFFQAEDRFVRRKKKAAAAAGGKKRSYTKDYTEGWVEFRDKRIAKRVAASLHNTPMGARRRSPFRYDLWNLKYLHRFTWSHLSEHLAFERQVRRQRLRAEVAQAKRETDFYLQSVERGQRFLAADGDPARPDGSWTFAQRPTEQELRARKAARPGGRERARLATAQDKARSNKGLLARIFGAPPPSESMEGPSLVRDS", "soluble on expression in E. coli": "not soluble"},
      {"sequence": "MGHHHHHHSHMECETDEQKQGSDENMSECETSSVCSSSDTGLFTNDEGRQGDDEQSDWFYEGECVPGFTVPNLLPKWAPDHCSEVERMDSGLDKFSDSTFLLPSRPAQRGYHTRLNRLPGAAARCLRKGRRRLVGKETSINTLGTERISHIISDPRQKDFWLPSAGKRERNQFNPLSPLYSLDVLADASHRRCSPAHCSARQANVHWGPPCSRVIKRKRKPVATASLSSPSAVHMDAVEPTTPASQAPKSPSSEWLVRTSAAEKATDATTATFFKMPQEKSPGYS", "soluble on expression in E. coli": "not soluble"},
      {"sequence": "MGHHHHHHSHMEKSEPVDQRRHTAGKAIVDSRSAQPKETSEERKARLSEWKAGKGRVLKRPPNSVVTQHEPAGQNEKPVGSFWTTMAEEDEQRLFTEKVNNTFSECLNLINEGCPKEDILVTLNDLIKNIPDAKKLVKYWICLALIEPITSPIENIIAIYEKAILAGAQPIEEMRHTIVDILTMKSQEKANLGENMEKSCASKEEVQEVSIEDTGVDVDPEKLEMESKLHRNLLFQDCEKEQDNKTKDPTHDVKTPNTETRTSCLIKYNVSTTPYLQSVKKKVQFDGTNSAFKELKFLTPVRRSRRLQEKTSKLPDMLRDHYPCVSSLEQLTELGRETDAFVCRPNAALCRVYYEADTT", "soluble on expression in E. coli": "not soluble"},
      {"sequence": "MGHHHHHHSHMENKMESIEQQVEVLLEQEPQLLPAAMAERLGVTEFDVVAALPQEMVAISPGEQAQTILESLVGFGPVTTIVHSFGSIFEVKAPFPKGKVARGYYNLMGREGELHGHLKLDNVKNIALVSKPFMGRESHYFGFFSECGSNIFKVYLGRDEKRELIAEQVTAFRAMQAELNQ", "soluble on expression in E. coli": "soluble"},
      {"sequence": "MGHHHHHHSHMGKKIKKEVEPPPKDVFDPLMIESKKAATVVLMLNSPEEEILAKACEAIYKFALKGEENKTTLLELGAVEPLTKLLTHEDKIVRRNATMIFGILASNNDVKKLLRELDVMNSVIAQLAPEEEVVIHEFASLCLANMSAEYTSKVQIFEHGGLEPLIRLLSSPDPDVKKNSMECIYNLVQDFQCRAKLQELNAIPPILDLLKSEYPVIQLLALKTLGVIANDKESRTMLRDNQGLDHLIKILETKELNDLHIEALAVIANCLEDMDTMVQIQQTGGLKKLLSFAENSTIPDIQKNAAKAITKAAYDPENRKLFHEQEVEKCLVALLGSENDGTKIAASQAISAMCENSGSKDFFNNQGIPQLIQLLKSDNEEVREAAALALANLTTCNPANANAAAEADGIDPLINLLSSKRDGAIANAATVLTNMAMQEPLRLNIQNHDIMHAIISPLRSANTVVQSKAALAVTATACDVEARTELRNSGGLEPLVELLRSKNDEVRKHASWAVMVCAGDELTANELCRLGALDILEEVNVSGTRKNKFSEAAYNKLLNNNLSLKYSQTGYLSSSNIINDGFYDYGRINPGTKLLPLKEL", "soluble on expression in E. coli": "not soluble"},
      {"sequence": "MGHHHHHHSHMGLSYQEELTLPFELCDVKSDIKLPLLLDYCLMVSGRQSAQLGRSNNNLLVDYKLVWIVTDYEITIHRLPHFQETIIIETKALSYNKFFCYRQFYIYDQEGGLLVDILAYFALLNPDTRKVATIPEDLVAPFETDFVKKLHRVPKMPLLEQSIDRDYYVRYFDIDMNGHVNNSKYLDWMYDVLGCEFLKTHQLLKMTLKYVKEVSPGGQITSSYHLDQLTSYHQIISDGQLNAQAMIEWRAIKPIESETD", "soluble on expression in E. coli": "not soluble"},
      {"sequence": "MGHHHHHHSHMGVTCVSQMPVAEGKSVQQTVELLTRKLEMLGAEKQGTFCVDCETYHTAASTLGSQGQTGKLMYVMHNSEYPLSCFALFENGPCLIADTNFDVLMVKLKGFFQSAKASKIETRGTRYQYCDFLVKVGTVTMGPSARGISVEVEYGPCVVASDCWSLLLEFLQSFLGSHTPGAPAVFGNRHDAVYGPADTMVQYMELFNKIRKQQQVPVAGIR", "soluble on expression in E. coli": "soluble"},
      {"sequence": "MGHHHHHHSHMIKLENELLLVEMKEAGAELTRIFHKDTKLEYLWNADSTFWGRHSPVLFPTVGRLVEDTYFVDGNPYHLGQHGFARDRDFKVVEHTENAVRFELDADEDSLTIYPYKFKLSIIYTIEKDSVAVSYEVENTDNKRIYFSIGAHPAFNLPLADGTTFEDYYLDFGTEENLETLCLEGPYRSGKIEKVVNEPARYLPLSYDLFKNDALIFEGLKQKEITIKSDKTPHFVKVSFPEFPFVGVWTAKAGTPFLCIEPWYGIADGAGKSVELRDKAGIEHLEPEAVFASEYKITIG", "soluble on expression in E. coli": "soluble"}
    ]}
  ]
}
